Data: paper PMC10397247
Like-named read-outs stand apart in the source and are kept apart here.

Assays:
4H2608-AA = biological target: T1, 4H2608-AA; experiment: two-hybrid library CCmax;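 note: natural log of median RNA to DNA barcode read ratio; higher means stronger binding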
T1 chain: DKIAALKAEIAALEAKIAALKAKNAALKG

4H3595-AA = biological target: T2, 4H3595-AA; experiment: two-hybrid library CCmax; conditions: mean of both orientations;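 note: natural log of median RNA to DNA barcode read ratio; higher means stronger binding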
T2 chain: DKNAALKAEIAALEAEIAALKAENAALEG

4H2961-AA = biological target: T3, 4H2961-AA; experiment: two-hybrid library CCmax; conditions: mean of both orientations;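 note: natural log of median RNA to DNA barcode read ratio; higher means stronger binding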
T3 chain: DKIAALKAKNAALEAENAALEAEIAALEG

4H3939-AA = biological target: T4, 4H3939-AA; experiment: two-hybrid library CCmax; conditions: mean of both orientations;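 note: natural log of median RNA to DNA barcode read ratio; higher means stronger binding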
T4 chain: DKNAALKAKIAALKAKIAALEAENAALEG

4H249-AA = biological target: T5, 4H249-AA; experiment: two-hybrid library CCmax; conditions: mean of both orientations;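 note: natural log of median RNA to DNA barcode read ratio; higher means stronger binding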
T5 chain: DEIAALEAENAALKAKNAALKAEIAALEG

4H2728-AA = biological target: T6, 4H2728-AA; experiment: two-hybrid library CCmax; conditions: mean of both orientations;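 note: natural log of median RNA to DNA barcode read ratio; higher means stronger binding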
T6 chain: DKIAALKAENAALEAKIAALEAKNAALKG

4H483-AA = biological target: T7, 4H483-AA; experiment: two-hybrid library CCmax; conditions: mean of both orientations
T7 chain: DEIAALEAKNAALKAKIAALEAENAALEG

4H3049-AA = biological target: T8, 4H3049-AA; experiment: two-hybrid library CCmax; conditions: mean of both orientations
T8 chain: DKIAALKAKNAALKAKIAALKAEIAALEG

4H1913-AA = biological target: T9, 4H1913-AA; experiment: two-hybrid library CCmax; conditions: mean of both orientations
T9 chain: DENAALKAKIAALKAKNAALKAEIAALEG

4H2580-AA = biological target: T10, 4H2580-AA; experiment: two-hybrid library CCmax; conditions: mean of both orientations
T10 chain: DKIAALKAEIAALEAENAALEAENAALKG

4H2699-AA = biological target: T11, 4H2699-AA; experiment: two-hybrid library CCmax; conditions: mean of both orientations
T11 chain: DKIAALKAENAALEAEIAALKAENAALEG

4H341-AA = biological target: T12, 4H341-AA; experiment: two-hybrid library CCmax; conditions: mean of both orientations
T12 chain: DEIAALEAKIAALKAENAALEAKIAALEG

4H380-AA = biological target: T13, 4H380-AA; experiment: two-hybrid library CCmax; conditions: mean of both orientations
T13 chain: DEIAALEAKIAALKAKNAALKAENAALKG

4H3129-AA = biological target: T14, 4H3129-AA; experiment: two-hybrid library CCmax; conditions: mean of both orientations
T14 chain: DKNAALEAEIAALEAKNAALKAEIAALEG

4H3969-AA = biological target: T15, 4H3969-AA; experiment: two-hybrid library CCmax; conditions: mean of both orientations
T15 chain: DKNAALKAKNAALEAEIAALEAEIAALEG

4H1867-AA = biological target: T16, 4H1867-AA; experiment: two-hybrid library CCmax
T16 chain: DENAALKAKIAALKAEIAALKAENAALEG

4H3629-AA = biological target: T17, 4H3629-AA; experiment: two-hybrid library CCmax; conditions: mean of both orientations
T17 chain: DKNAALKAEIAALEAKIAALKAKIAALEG

4H63-AA = biological target: T18, 4H63-AA; experiment: two-hybrid library CCmax; conditions: mean of both orientations
T18 chain: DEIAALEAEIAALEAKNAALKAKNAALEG

4H2903-AA = biological target: T19, 4H2903-AA; experiment: two-hybrid library CCmax; conditions: mean of both orientations
T19 chain: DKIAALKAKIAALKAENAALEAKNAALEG

4H464-AA = biological target: T20, 4H464-AA; experiment: two-hybrid library CCmax; conditions: mean of both orientations
T20 chain: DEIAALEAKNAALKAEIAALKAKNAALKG

4H2774-AA = biological target: T21, 4H2774-AA; experiment: two-hybrid library CCmax; conditions: mean of both orientations
T21 chain: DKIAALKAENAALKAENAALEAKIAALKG

4H2621-AA = biological target: T22, 4H2621-AA; experiment: two-hybrid library CCmax; conditions: mean of both orientations
T22 chain: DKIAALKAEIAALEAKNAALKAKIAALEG

4H3414-AA = biological target: T23, 4H3414-AA; experiment: two-hybrid library CCmax; conditions: mean of both orientations
T23 chain: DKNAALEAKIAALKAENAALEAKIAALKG

4H446-AA = biological target: T24, 4H446-AA; experiment: two-hybrid library CCmax; conditions: mean of both orientations
T24 chain: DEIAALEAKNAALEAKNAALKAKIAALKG

4H3782-AA = biological target: T25, 4H3782-AA; experiment: two-hybrid library CCmax; conditions: mean of both orientations
T25 chain: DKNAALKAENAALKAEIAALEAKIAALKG

4H1558-AA = biological target: T26, 4H1558-AA; experiment: two-hybrid library CCmax
T26 chain: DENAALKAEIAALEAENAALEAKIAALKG

Q7-AA = biological target: T27, Q7-AA; experiment: two-hybrid library CCmax
T27 chain: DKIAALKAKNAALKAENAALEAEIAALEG

Q8-AA = biological target: T28, Q8-AA; experiment: two-hybrid library CCmax; conditions: mean of both orientations
T28 chain: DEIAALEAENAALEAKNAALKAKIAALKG

4H491-bH = biological target: T29, 4H491-bH; experiment: two-hybrid library CCNG1
T29 chain: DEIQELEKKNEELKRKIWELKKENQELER

4H3632-bH = biological target: T30, 4H3632-bH; experiment: two-hybrid library CCNG1
T30 chain: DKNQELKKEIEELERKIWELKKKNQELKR

4H342-bH = biological target: T31, 4H342-bH; experiment: two-hybrid library CCNG1
T31 chain: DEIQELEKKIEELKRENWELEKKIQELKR

4H496-bH = biological target: T32, 4H496-bH; experiment: two-hybrid library CCNG1
T32 chain: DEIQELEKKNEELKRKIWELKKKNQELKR

4H48-bH = biological target: T33, 4H48-bH; experiment: two-hybrid library CCNG1
T33 chain: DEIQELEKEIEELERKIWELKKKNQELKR

O6-bP = biological target: T34, O6-bP; experiment: two-hybrid library CCNG1
T34 chain: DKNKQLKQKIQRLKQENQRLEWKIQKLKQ

4H906-bN = biological target: T35, 4H906-bN; experiment: two-hybrid library CCNG1
T35 chain: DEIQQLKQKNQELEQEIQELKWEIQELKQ

4H3129-bN = biological target: T36, 4H3129-bN; experiment: two-hybrid library CCNG1
T36 chain: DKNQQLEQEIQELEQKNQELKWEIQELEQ

4H850-bN = biological target: T37, 4H850-bN; experiment: two-hybrid library CCNG1
T37 chain: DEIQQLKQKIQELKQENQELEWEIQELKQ

4H619-bN = biological target: T38, 4H619-bN; experiment: two-hybrid library CCNG1
T38 chain: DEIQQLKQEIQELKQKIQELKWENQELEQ

4H3631-bN = biological target: T39, 4H3631-bN; experiment: two-hybrid library CCNG1
T39 chain: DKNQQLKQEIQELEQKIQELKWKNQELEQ

4H3817-bN = biological target: T40, 4H3817-bN; experiment: two-hybrid library CCNG1
T40 chain: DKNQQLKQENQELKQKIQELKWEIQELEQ

4H584-bN = biological target: T41, 4H584-bN; experiment: two-hybrid library CCNG1
T41 chain: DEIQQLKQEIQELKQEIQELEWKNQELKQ

4H3974-bN = biological target: T42, 4H3974-bN; experiment: two-hybrid library CCNG1
T42 chain: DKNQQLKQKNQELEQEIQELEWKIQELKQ

4H3172-bN = biological target: T43, 4H3172-bN; experiment: two-hybrid library CCNG1
T43 chain: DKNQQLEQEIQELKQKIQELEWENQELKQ

4H1985-bN = biological target: T44, 4H1985-bN; experiment: two-hybrid library CCNG1
T44 chain: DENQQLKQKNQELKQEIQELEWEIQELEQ

4H570-bN = biological target: T45, 4H570-bN; experiment: two-hybrid library CCNG1
T45 chain: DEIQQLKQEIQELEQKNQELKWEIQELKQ

4H3638-bN = biological target: T46, 4H3638-bN; experiment: two-hybrid library CCNG1
T46 chain: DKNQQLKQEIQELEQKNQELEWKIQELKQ

4H3414-bN = biological target: T47, 4H3414-bN; experiment: two-hybrid library CCNG1
T47 chain: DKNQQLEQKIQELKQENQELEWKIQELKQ

4H1804-bN = biological target: T48, 4H1804-bN; experiment: two-hybrid library CCNG1
T48 chain: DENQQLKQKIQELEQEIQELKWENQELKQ

O6-bS = biological target: T49, O6-bS; experiment: two-hybrid library CCNG1
T49 chain: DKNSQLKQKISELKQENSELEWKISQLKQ

O5-bS = biological target: T50, O5-bS; experiment: two-hybrid library CCNG1
T50 chain: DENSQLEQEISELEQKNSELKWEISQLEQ

O3-bS = biological target: T51, O3-bS; experiment: two-hybrid library CCNG1
T51 chain: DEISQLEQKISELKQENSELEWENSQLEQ

O15-bS = biological target: T52, O15-bS; experiment: two-hybrid library CCNG1
T52 chain: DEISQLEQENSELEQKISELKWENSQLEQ

O4-bS = biological target: T53, O4-bS; experiment: two-hybrid library CCNG1
T53 chain: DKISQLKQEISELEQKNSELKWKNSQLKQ

O7-bS = biological target: T54, O7-bS; experiment: two-hybrid library CCNG1
T54 chain: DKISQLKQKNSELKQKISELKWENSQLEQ

O16-bS = biological target: T55, O16-bS; experiment: two-hybrid library CCNG1
T55 chain: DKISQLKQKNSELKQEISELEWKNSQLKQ

O9-bS = biological target: T56, O9-bS; experiment: two-hybrid library CCNG1
T56 chain: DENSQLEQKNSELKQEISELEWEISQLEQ

O2-bS = biological target: T57, O2-bS; experiment: two-hybrid library CCNG1
T57 chain: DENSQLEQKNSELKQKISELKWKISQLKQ

O8-bS = biological target: T58, O8-bS; experiment: two-hybrid library CCNG1
T58 chain: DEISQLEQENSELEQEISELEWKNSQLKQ

DENAALKAEIAALEAENAALEAKIAALKG [4H1558-AA]
interaction score (4H2608-AA): -1.1
interaction score (4H3595-AA): -1.53
interaction score (4H2961-AA): -1.19
interaction score (4H3939-AA): -0.411
interaction score (4H249-AA): 1.51
interaction score (4H2728-AA): -0.226
interaction score (4H483-AA): 0.272
interaction score (4H3049-AA): 1.32
interaction score (4H1913-AA): 1.75
interaction score (4H2580-AA): -1.57
interaction score (4H2699-AA): -0.582
interaction score (4H341-AA): 1.27
interaction score (4H380-AA): 1.48
interaction score (4H3129-AA): 2.15
interaction score (4H3969-AA): -1.28
interaction score (4H1867-AA): -1.23
interaction score (4H3629-AA): 0.444
interaction score (4H63-AA): -0.799
interaction score (4H2903-AA): -0.294
interaction score (4H464-AA): 0.907
interaction score (4H2774-AA): -0.715
interaction score (4H2621-AA): 1.29
interaction score (4H3414-AA): 1.1
interaction score (4H446-AA): -0.543
interaction score (4H3782-AA): -0.467
interaction score (4H1558-AA): 0.452

DKIAALKAKNAALKAENAALEAEIAALEG [Q7-AA]
interaction score (Q7-AA): -1.59
interaction score (Q8-AA): 2.38

DEIAALEAEIAALEAENAALEAENAALEG [Q3-AA]
interaction score (Q7-AA; mean of both orientations): -1.36
interaction score (Q8-AA): -1.09

DEIQELEKKIEELKRENWELEKKIQELKR [4H342-bH]
interaction score (4H491-bH): 1.47
interaction score (4H3632-bH): 1.55
interaction score (4H342-bH): 1.38
interaction score (4H496-bH): 0.0247
interaction score (4H48-bH): -0.0388

DEIQELEKEIEELERKIWELKKKNQELKR [4H48-bH]
interaction score (4H491-bH): 2.29
interaction score (O6-bP): -0.138
interaction score (4H48-bH): 1.21

DENQQLKQKIQELEQEIQELKWENQELKQ [4H1804-bN]
interaction score (4H906-bN): -0.241
interaction score (4H3129-bN): 0.0855
interaction score (4H850-bN): 0.194
interaction score (4H619-bN): -1.34
interaction score (4H3631-bN): 0.112
interaction score (4H3817-bN): -0.425
interaction score (4H584-bN): 0.249
interaction score (4H3974-bN): -1.87
interaction score (4H3172-bN): -0.368
interaction score (4H1985-bN): 0.201
interaction score (4H570-bN): -0.363
interaction score (4H3638-bN): -0.805
interaction score (4H3414-bN): -0.563
interaction score (4H1804-bN): 1.58

DEISQLEQENSELEQKISELKWENSQLEQ [O15-bS]
interaction score (O6-bS): -0.0139
interaction score (O5-bS): -1.13
interaction score (O3-bS): -3.1
interaction score (O15-bS): -0.724
interaction score (O4-bS): -0.754
interaction score (O7-bS): -0.978
interaction score (O16-bS): 1.93
interaction score (O9-bS): -0.877
interaction score (O2-bS): -0.919
interaction score (O8-bS): -1.05
